In patent US20240327534A1 (HARPOON THERAPEUTICS, published 2024):
Positions count from the first letter of the chain named.

T1: human BCMA on BCMA expressing cell lines (human, UniProt Q02223 1-184)
T1 sequence: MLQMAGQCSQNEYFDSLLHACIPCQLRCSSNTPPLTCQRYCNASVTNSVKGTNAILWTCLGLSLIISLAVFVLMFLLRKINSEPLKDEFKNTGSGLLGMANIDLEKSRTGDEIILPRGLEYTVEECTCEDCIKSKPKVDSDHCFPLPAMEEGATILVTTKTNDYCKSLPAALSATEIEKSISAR

T2: human BCMA protein (human, UniProt Q02223 1-54, limits assumed)
T2 sequence: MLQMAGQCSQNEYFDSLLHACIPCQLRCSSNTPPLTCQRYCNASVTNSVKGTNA

B1: BCMA targeting trispecific protein 253BH10 (other, not shown: large carriers; small tags and cut ends)
VHH: QVQLVESGGGLVQPGESLRLSCAASTNIFSISPMGWYRQAPGKQRELVAAIHGFSTLYADSVKGRFTISRDNAKNTIYLQMNSLKPEDTAVYYCNKVPWGDYHPRNVYWGQGTQVTVSS
notes: trispecific; described as a molecule with the parental CDRs; also called BH253
B2: BCMA targeting trispecific protein 01A06 (other)
VHH: B1 VHH with Q1E, E16R, R19T, S32R, L57V, T76S, K85R, V91L
notes: trispecific; not shown: the C-terminal 6xHis tag follows those missing domains and is left out
B3: BCMA targeting trispecific protein 01B02 (other)
VHH: B1 VHH with Q1E, E16R, R19T, F29T, H52S, T76S, K85R, V91L, K96E
notes: trispecific; not shown: anti-albumin domain, anti-CD3 domain and the linkers of the trispecific; the C-terminal His6 that follows them is left out
B4: BCMA targeting trispecific protein 01C01 (other, not shown: large carriers; small tags and cut ends)
VHH: B1 VHH with Q1E, E16R, R19T, F29V, F54H, T76S, K85R, V91L, R105G
notes: trispecific
B5: BCMA targeting trispecific protein 01D07 (other, not shown: large carriers; small tags and cut ends)
VHH: B1 VHH with Q1E, E16R, R19T, I31A, F54S, T76S, K85R, V91L, Y108N
notes: trispecific
B6: BCMA targeting trispecific protein 01H06 (other, not shown: large carriers; small tags and cut ends)
VHH: B1 VHH with Q1E, E16R, R19T, N27S, I28D, S55E, T76S, K85R, V91L, R105G
B7: BCMA targeting trispecific protein 01A04 (other, not shown: large carriers; small tags and cut ends)
VHH: B1 VHH with Q1E, E16R, R19T, S30M, F54D, T76S, K85R, V91L, D101R
notes: trispecific
B8: BCMA targeting trispecific protein 01B03 (other, not shown: large carriers; small tags and cut ends)
VHH: B1 VHH with Q1E, E16R, R19T, I31K, F54K, T76S, K85R, V91L, Y108V
notes: trispecific
B9: BCMA targeting trispecific protein 01C05 (other, not shown: large carriers; small tags and cut ends)
VHH: B1 VHH with Q1E, E16R, R19T, I31S, S55K, T76S, K85R, V91R, R105G
notes: trispecific
B10: BCMA targeting trispecific protein 01A05 (other)
VHH: B1 VHH with Q1E, E16R, R19T, I31S, T76S, K85R, V91L
notes: trispecific; not shown: anti-albumin domain, anti-CD3 domain and the linkers of the trispecific (TriTAC) format
B11: BCMA targeting trispecific protein 01A03 (other, not shown: large carriers; small tags and cut ends)
VHH: B1 VHH with Q1E, E16R, R19T, M34G, F54S, T76S, K85R, V91L
notes: trispecific
B12: BCMA targeting trispecific protein 01B05 (other, not shown: large carriers; small tags and cut ends)
VHH: B1 VHH with Q1E, E16R, R19T, F29T, S55E, T76S, K85R, V91L, R105G
notes: trispecific
B13: BCMA targeting trispecific protein 01A01 (other, not shown: large carriers; small tags and cut ends)
VHH: B1 VHH with Q1E, E16R, R19T, N27D, F54G, T76S, K85R, V91L, Y108A
notes: trispecific
B14: BCMA targeting trispecific protein 01E04 (other, not shown: large carriers; small tags and cut ends)
VHH: B1 VHH with Q1E, E16R, R19T, F29A, F54T, T76S, K85R, V91L, R105G
notes: trispecific
B15: BCMA targeting trispecific protein 01D03 (other)
VHH: B1 VHH with Q1E, E16R, R19T, I31N, F54D, T76S, K85R, V91L, Y108R
notes: as for B10
B16: BCMA targeting trispecific protein 01C07 (other, not shown: large carriers; small tags and cut ends)
VHH: B1 VHH with Q1E, E16R, R19T, S32Y, L57Y, T76S, K85R, V91L, D101S
notes: trispecific
B17: BCMA targeting trispecific protein 01B12 (other, not shown: large carriers; small tags and cut ends)
VHH: B1 VHH with Q1E, E16R, R19T, I31T, S55Q, T76S, K85R, V91L, Y108V
notes: trispecific
B18: BCMA targeting trispecific protein 01B01 (other, not shown: large carriers; small tags and cut ends)
VHH: B1 VHH with Q1E, E16R, R19T, F29P, F54E, T76S, K85R, V91L, Y108A
notes: trispecific
B19: BCMA targeting trispecific protein 01D06 (other)
VHH: B1 VHH with Q1E, E16R, R19T, I31R, F54D, T76S, K85R, V91L, Y108T
notes: as for B10
B20: BCMA targeting trispecific protein 01D10 (other)
VHH: B1 VHH with Q1E, E16R, R19T, I31A, F54S, T76S, K85R, V91L, D101R
notes: as for B3
B21: BCMA targeting trispecific protein 01B09 (other, not shown: large carriers; small tags and cut ends)
VHH: B1 VHH with Q1E, E16R, R19T, T26S, F54S, T76S, K85R, V91L, R105G
notes: trispecific
B22: BCMA targeting trispecific protein 01E03 (other, not shown: large carriers; small tags and cut ends)
VHH: B1 VHH with Q1E, E16R, R19T, F29T, F54D, T76S, K85R, V91L, R105G
notes: trispecific
B23: BCMA targeting trispecific protein 01B06 (other)
VHH: B1 VHH with Q1E, E16R, R19T, F54D, T76S, K85R, V91L, D101E
notes: as for B2
B24: BCMA targeting trispecific protein 01D05 (other)
VHH: B1 VHH with Q1E, E16R, R19T, I31D, F54T, T76S, K85R, V91L
notes: trispecific; not shown: anti-albumin domain, anti-CD3 domain and the linkers of the trispecific (TriTAC) chain; the C-terminal 6xHis tag follows these missing domains and is left out
B25: BCMA targeting trispecific protein 01D04 (other)
VHH: B1 VHH with Q1E, E16R, R19T, F29T, F54V, T76S, K85R, V91L, Y108Q
notes: as for B24
B26: BCMA targeting trispecific protein 01B04 (other)
VHH: B1 VHH with Q1E, E16R, R19T, I28D, F54K, T76S, K85R, V91L, Y108K
notes: as for B24
B27: BCMA targeting trispecific protein 01A02 (other, not shown: large carriers; small tags and cut ends)
VHH: B1 VHH with Q1E, E16R, R19T, I31S, H52N, T76S, K85R, V91L, Y108H
notes: trispecific
B28: BCMA targeting trispecific protein 01C04 (other)
VHH: B1 VHH with Q1E, E16R, R19T, F29P, F54D, T76S, K85R, V91L
notes: as for B24
B29: BCMA targeting trispecific protein 01B08 (other, not shown: large carriers; small tags and cut ends)
VHH: B1 VHH with Q1E, E16R, R19T, F29E, F54S, T76S, K85R, V91L, D101R
notes: trispecific
B30: BCMA targeting trispecific protein 01D02 (other)
VHH: B1 VHH with Q1E, E16R, R19T, F29V, F54K, T76S, K85R, V91L, R105G
notes: trispecific; not shown: the C-terminal His6 follows those missing domains and is left out
B31: BCMA targeting trispecific protein 01A07 (other)
VHH: B1 VHH with Q1E, E16R, R19T, F29S, F54T, T76S, K85R, V91L, R105G
notes: as for B30
B32: BCMA targeting trispecific protein 01A08 (other, not shown: large carriers; small tags and cut ends)
VHH: B1 VHH with Q1E, E16R, R19T, I31S, F54E, T76S, K85R, V91L, N106K
notes: trispecific
B33: BCMA targeting trispecific protein 01C02 (other)
VHH: B1 VHH with Q1E, E16R, R19T, F29E, F54N, T76S, K85R, V91L, D101R
notes: trispecific; not shown: The C-terminal 6xHis tag is left out because it follows these missing domains
B34: BCMA targeting trispecific protein 01C08 (other, not shown: large carriers; small tags and cut ends)
VHH: B1 VHH with Q1E, E16R, R19T, I31N, F54G, T76S, K85R, V91L, Y108H
notes: trispecific
B35: BCMA targeting trispecific protein 01C06 (other, not shown: large carriers; small tags and cut ends)
VHH: B1 VHH with Q1E, E16R, R19T, F54D, T76S, K85R, V91L, D101K
notes: trispecific
B36: BCMA targeting trispecific protein 01A09 (other, not shown: large carriers; small tags and cut ends)
VHH: B1 VHH with Q1E, E16R, R19T, S32T, F54R, T76S, K85R, V91L, D101S
notes: trispecific
B37: BCMA targeting trispecific protein 01C10 (other, not shown: large carriers; small tags and cut ends)
VHH: B1 VHH with Q1E, E16R, R19T, F29S, T76S, K85R, V91L, D101Y
notes: trispecific
B38: BCMA targeting trispecific protein 01B07 (other, not shown: large carriers; small tags and cut ends)
VHH: B1 VHH with Q1E, E16R, R19T, I31R, F54N, T76S, K85R, V91L, D101I
notes: trispecific

These binders were tested against T1, human BCMA on BCMA expressing cell lines (assay: cell-based or functional assay).

Binder | TDCC EC50 (EJM cells)
B1 | 0.0529 nM
B2 | 0.011 nM
B3 | 0.359 nM
B4 | 0.00133 nM
B5 | 0.0196 nM
B6 | 0.001 nM
B7 | 0.159 nM
B8 | 0.0964 nM
B9 | 0.00307 nM
B10 | 0.0151 nM
B11 | 0.0461 nM
B12 | 0.00301 nM
B13 | 0.0264 nM
B14 | 0.00267 nM
B15 | 0.0149 nM
B16 | 0.0833 nM
B17 | 0.0273 nM
B18 | 0.0195 nM
B19 | 0.0135 nM

Binder | TDCC EC50 (EJM cells)
B20 | 0.453 nM
B21 | 0.00527 nM
B22 | 0.00298 nM
B23 | 0.00697 nM
B24 | 0.0166 nM
B25 | 0.016 nM
B26 | 0.0161 nM
B27 | 0.0218 nM
B28 | 0.0175 nM
B29 | 0.0876 nM
B30 | 0.00225 nM
B31 | 0.00249 nM
B32 | 0.00425 nM
B33 | 0.0373 nM
B34 | 0.0457 nM
B35 | 0.0251 nM
B36 | 0.0484 nM
B37 | 0.208 nM
B38 | 0.174 nM

These binders were tested against T2, human BCMA protein (assay: affinity to human BCMA protein, method not stated).

Binder | Kd
B1 | 27.7 nM
B2 | 15.8 nM
B3 | 18.8 nM
B4 | 6.52 nM
B5 | 19.3 nM
B7 | 37.5 nM
B8 | 26.2 nM
B9 | 6.09 nM
B10 | 17 nM
B11 | 30.8 nM
B12 | 6.52 nM
B13 | 21.3 nM
B14 | 7.29 nM
B15 | 20.9 nM
B16 | 19.8 nM
B17 | 20.7 nM
B18 | 19.9 nM
B19 | 14.9 nM
B20 | 53.9 nM

Binder | Kd
B21 | 11.2 nM
B22 | 6.36 nM
B23 | 9.1 nM
B24 | 17.8 nM
B25 | 18.9 nM
B26 | 18.6 nM
B27 | 21.5 nM
B28 | 21.6 nM
B29 | 25.6 nM
B30 | 7.35 nM
B31 | 6.95 nM
B32 | 11.7 nM
B33 | 20 nM
B34 | 28.3 nM
B35 | 18.8 nM
B36 | 23.9 nM
B37 | 46.4 nM
B38 | 43.9 nM
